Measurements reported in patent US20090035321A1, “Intercellular adhesion molecules and their binding ligands” (Boehringer Ingelheim Pharmaceuticals, Inc., published 2009).

Assays:
[1] = target: ICAM-1 A115N/SV (printed A155N/SV at paragraph 410) (human) (UniProt P05362); assay: COS cells on LFA-1 coated plastic
ICAM-1 N240DS/KNA = ICAM-1 N240DS/KNA (human, UniProt P05362); assay: COS cells on LFA-1 coated plastic
ICAM-1 V4/G [2] = target: T1, ICAM-1 V4/G (human, UniProt P05362); assay: COS cells on LFA-1 coated plastic
ICAM-1 D26QPK/ALPE = ICAM-1 D26QPK/ALPE (human, UniProt P05362); assay: COS cells on LFA-1 coated plastic
ICAM-1 G46NN/ASI [3] = target: T2, ICAM-1 G46NN/ASI (human, UniProt P05362); assay: COS cells on LFA-1 coated plastic
ICAM-1 N48/H = ICAM-1 N48/H (human, UniProt P05362); assay: COS cells on LFA-1 coated plastic
ICAM-1 K50V/EL [4] = target: T3, ICAM-1 K50V/EL (human, UniProt P05362); assay: COS cells on LFA-1 coated plastic
ICAM-1 E59/K [5] = target: T4, ICAM-1 E59/K (human, UniProt P05362); assay: COS cells on LFA-1 coated plastic
ICAM-1 E59/Q = ICAM-1 E59/Q (human, UniProt P05362); assay: COS cells on LFA-1 coated plastic
ICAM-1 D60/K [6] = target: T5, ICAM-1 D60/K (human, UniProt P05362); assay: COS cells on LFA-1 coated plastic
ICAM-1 D60/N = ICAM-1 D60/N (human, UniProt P05362); assay: COS cells on LFA-1 coated plastic
ICAM-1 S61/I [7] = target: T6, ICAM-1 S61/I (human, UniProt P05362); assay: COS cells on LFA-1 coated plastic
ICAM-1 D71/E [8] = target: T7, ICAM-1 D71/E (human, UniProt P05362); assay: COS cells on LFA-1 coated plastic
ICAM-1 T75/A [9] = target: T8, ICAM-1 T75/A (human, UniProt P05362); assay: COS cells on LFA-1 coated plastic
ICAM-1 Y83/S = ICAM-1 Y83/S (human, UniProt P05362); assay: COS cells on LFA-1 coated plastic
ICAM-1 R88V/EA = ICAM-1 R88V/EA (human, UniProt P05362); assay: COS cells on LFA-1 coated plastic
ICAM-1 G101K/AN = ICAM-1 G101K/AN (human, UniProt P05362); assay: COS cells on LFA-1 coated plastic
ICAM-1 N175/A = ICAM-1 N175/A (human, UniProt P05362); assay: COS cells on LFA-1 coated plastic
ICAM-1 A178/G = ICAM-1 A178/G (human, UniProt P05362); assay: COS cells on LFA-1 coated plastic
ICAM-1 S5/T (human) = ICAM-1 S5/T (human) (UniProt P05362); assay: flow, COS cells
ICAM-1 Q1/E = ICAM-1 Q1/E (human, UniProt P05362); assay: flow, COS cells
ICAM-1 V4/G [10] = target: T1, ICAM-1 V4/G; assay: flow, COS cells
ICAM-1 R13/E = ICAM-1 R13/E (human, UniProt P05362); assay: flow, COS cells
ICAM-1 R13/Q = ICAM-1 R13/Q (human, UniProt P05362); assay: flow, COS cells
ICAM-1 T20CS/ACT = ICAM-1 T20CS/ACT (human, UniProt P05362); assay: flow, COS cells
ICAM-1 E34/A = ICAM-1 E34/A (human, UniProt P05362); assay: flow, COS cells
ICAM-1 K40/A = ICAM-1 K40/A (human, UniProt P05362); assay: flow, COS cells
ICAM-1 G46NN/ASI [11] = target: T2, ICAM-1 G46NN/ASI; assay: flow, COS cells
ICAM-1 R49KV/EKL = ICAM-1 R49KV/EKL (human, UniProt P05362); assay: flow, COS cells
ICAM-1 K50V/EL [12] = target: T3, ICAM-1 K50V/EL; assay: flow, COS cells
ICAM-1 Q58/H = ICAM-1 Q58/H (human, UniProt P05362); assay: flow, COS cells
ICAM-1 E59/K [13] = target: T4, ICAM-1 E59/K; assay: flow, COS cells
ICAM-1 D60/K [14] = target: T5, ICAM-1 D60/K; assay: flow, COS cells
ICAM-1 S61/I [15] = target: T6, ICAM-1 S61/I; assay: flow, COS cells
ICAM-1 Y66/T = ICAM-1 Y66/T (human, UniProt P05362); assay: flow, COS cells
ICAM-1 D71/E [16] = target: T7, ICAM-1 D71/E; assay: flow, COS cells
ICAM-1 Q73/T = ICAM-1 Q73/T (human, UniProt P05362); assay: flow, COS cells
ICAM-1 T75/A [17] = target: T8, ICAM-1 T75/A; assay: flow, COS cells
ICAM-1 E87/K = ICAM-1 E87/K (human, UniProt P05362); assay: flow, COS cells
ICAM-1 E90/K = ICAM-1 E90/K (human, UniProt P05362); assay: flow, COS cells
ICAM-1 K128/R = ICAM-1 K128/R (human, UniProt P05362); assay: flow, COS cells
ICAM-1 V136GE/GVK = ICAM-1 V136GE/GVK (human, UniProt P05362); assay: flow, COS cells
ICAM-1 R149RD/EEG = ICAM-1 R149RD/EEG (human, UniProt P05362); assay: flow, COS cells
ICAM-1 N175TSA/QTLG = ICAM-1 N175TSA/QTLG (human, UniProt P05362); assay: flow, COS cells
ICAM-1 S177/G = ICAM-1 S177/G (human, UniProt P05362); assay: flow, COS cells
ICAM-1 A189T/SI = ICAM-1 A189T/SI (human, UniProt P05362); assay: flow, COS cells
ICAM-1 D203TQ/TAD = ICAM-1 D203TQ/TAD (human, UniProt P05362); assay: flow, COS cells
ICAM-1 D213GL/HGV = ICAM-1 D213GL/HGV (human, UniProt P05362); assay: flow, COS cells
ICAM-1 D229QR/HLE = ICAM-1 D229QR/HLE (human, UniProt P05362); assay: flow, COS cells

purified LFA-1, bound to plastic (from UniProt P20701) (receptor)
LFA-1 Binding % (% of wild type) [1]: 0 | LFA-1 Binding % (% of wild type) (ICAM-1 N240DS/KNA): 147 | LFA-1 Binding % (% of wild type) (ICAM-1 V4/G [2]): 64 | LFA-1 Binding % (% of wild type) (ICAM-1 D26QPK/ALPE): 30 | LFA-1 Binding % (% of wild type) (ICAM-1 G46NN/ASI [3]): 49 | LFA-1 Binding % (% of wild type) (ICAM-1 N48/H): 88 | LFA-1 Binding % (% of wild type) (ICAM-1 K50V/EL [4]): 29 | LFA-1 Binding % (% of wild type) (ICAM-1 E59/K [5]): 134 | LFA-1 Binding % (% of wild type) (ICAM-1 E59/Q): 84 | LFA-1 Binding % (% of wild type) (ICAM-1 D60/K [6]): 14 | LFA-1 Binding % (% of wild type) (ICAM-1 D60/N): 92 | LFA-1 Binding % (% of wild type) (ICAM-1 S61/I [7]): 59 | LFA-1 Binding % (% of wild type) (ICAM-1 D71/E [8]): 118 | LFA-1 Binding % (% of wild type) (ICAM-1 T75/A [9]): 59 | LFA-1 Binding % (% of wild type) (ICAM-1 Y83/S): 42 | LFA-1 Binding % (% of wild type) (ICAM-1 R88V/EA): 95 | LFA-1 Binding % (% of wild type) (ICAM-1 G101K/AN): 97 | LFA-1 Binding % (% of wild type) (ICAM-1 N175/A): 67 | LFA-1 Binding % (% of wild type) (ICAM-1 A178/G): 59

monoclonal antibody CL203
SLFI % WT (ICAM-1 S5/T (human)): 251 % WT | SLFI % WT (ICAM-1 Q1/E): 135 % WT | SLFI % WT (ICAM-1 V4/G [10]): 111 % WT | SLFI % WT (ICAM-1 R13/E): 202 % WT | SLFI % WT (ICAM-1 R13/Q): 161 % WT | SLFI % WT (ICAM-1 T20CS/ACT): 148 % WT | SLFI % WT (ICAM-1 E34/A): 132 % WT | SLFI % WT (ICAM-1 K40/A): 146 % WT | SLFI % WT (ICAM-1 G46NN/ASI [11]): 151 % WT | SLFI % WT (ICAM-1 R49KV/EKL): 233 % WT | SLFI % WT (ICAM-1 K50V/EL [12]): 103 % WT | SLFI % WT (ICAM-1 Q58/H): 135 % WT | SLFI % WT (ICAM-1 E59/K [13]): 130 % WT | SLFI % WT (ICAM-1 D60/K [14]): 89 % WT | SLFI % WT (ICAM-1 S61/I [15]): 140 % WT | SLFI % WT (ICAM-1 Y66/T): 144 % WT | SLFI % WT (ICAM-1 D71/E [16]): 124 % WT | SLFI % WT (ICAM-1 Q73/T): 218 % WT | SLFI % WT (ICAM-1 T75/A [17]): 153 % WT | SLFI % WT (ICAM-1 E87/K): 94 % WT | SLFI % WT (ICAM-1 E90/K): 29 % WT | SLFI % WT (ICAM-1 K128/R): 190 % WT | SLFI % WT (ICAM-1 V136GE/GVK): 171 % WT | SLFI % WT (ICAM-1 R149RD/EEG): 159 % WT | SLFI % WT (ICAM-1 N175TSA/QTLG): 75 % WT | SLFI % WT (ICAM-1 S177/G): 87 % WT | SLFI % WT (ICAM-1 A189T/SI): 138 % WT | SLFI % WT (ICAM-1 D203TQ/TAD): 125 % WT | SLFI % WT (ICAM-1 D213GL/HGV): 128 % WT | SLFI % WT (ICAM-1 D229QR/HLE): 210 % WT
